B1: MPV486 (antibody, V domains shown)
VH: QVQLVESGGHLVQSGGSLRLSCAASGFTFSNYILNWVRQAPGKGLEWISYITGGSSAIYYADSVKGRFTISRDDAKNSLYLQMNNLRAEDTAVYYCARSHGYDSSGYYYYFAMDVWGQGTTVTVSS
VL: QSVLTQPPSASGTPGQRVTISCSGSNSNIESNTVNWYQQIPGTAPKLLIYSDNRRPSGVPDRFSGSKSGTSASLAISGLQSEDEADYYCAAWDDSLIGYVFGTGTKVTV
B2: MPV485 (antibody, V domains shown)
V domain 1: QVQLQEPGPGLVKPSETLSLTCTVSGGSISSTNSFWGWVRQPPGKGLEWIGSIYYSGTTYYNSSLKSRVTISVDTSKNQFSLRLSSVTAADTAVYYCARQGLTSSWYDGSGLDVWG
V domain 2: SYELTQPPSVSVSPGQTASITCSGDKLGNKYACWYQQRPGQSPVLVIYQDTKRPSGIPERFSGSNSGNTATLTISGTQAMDEADYYCQAWDSNTVVFGGGTKLTVL
B3: MPV482 (antibody, V domains shown)
VH: QVQLVQSGGGVVQPGRSLRLSCAASGFTFSSFAMHWVRQAPGKGLEWVALISDDGNNKYHADSVKGRFTISRDSSKNTLYLQMNSLRGEDTAVYYCARDGSVVGAAAHCDHWGQGTLVTVSS
VL: SYELTQPPSVSVSPGQTARITCSGDALPNQCAYWYQQKPGLAPVLLIYKDKERPSGIPERFSGSISGTTVTLTISGVQAEDEADYYCQSSDSSSTVVFGGGTKLTVL
B4: MPV464 (antibody, V domains shown)
VH: QVQLQESGPGLVKPSQTLSLTCTVSGGSVRGGGDYWSWIRRPPGKGLEWIGHIYNSGTTFYNPSLKSRVTISIDTSKNQFSLKLRSVTAADTAVYYCGRVGSRATGLPDWIDPWGQGTLVTVSS
VL: SYELTQPPSVSVSPGQTATITCSGTNLGAKYSCWYQQKPGQSPVLVIFQDNKRASGIPARFSASTSGDTATLTISGTQVMDEADYFCQAWDSRTAVFGGGTTLTV
B5: MPV491 (antibody, V domains shown)
VH: QVQLQESGPGLVKSSQTLSLTCTVSGGSISSVTSHWTWIRQHPGKGLEWIGYIFSSGTTYYSPSLRSRLTMSVDTSKNQFSLQLSSVTAADTAMYYCARGIYCGDSCYKGTDYWGRGTLVTVSS
VL: IRLMTQTPVTLPVTPGEPASISCRSSQSLLHSNGYNYLDWYLQKPGQSPQLLIYRGSTRASGVPDRFSGSGSGTEFTLKISRVEAEDVGVYYCMQGLQTPYTFGQGTKLESR
B6: MPV481 (antibody, V domains shown)
VH: QVQLVQSGGGLVKPGGSLRLSCAASGLPFNNAWMNWVRQAPGKGLEWVGRIKSKIDGGTTEYAAPVKGRFTISRDDSENTLYLQMNSLRTEDTAVYYCTTEYYALLSGNYSDCWGQGTLVTVSS
VL: IRLMTQSPFSLSLSPGERATLSCRASQSIKRAYLGWYQQKPGQAPRLLIYGASNRATGIPDRFSGSGSGTDFTLTISRLEPEDFAVYYCQQYGDSPGGSFGQGTKLEIR
B7: MPV454 (antibody, V domains shown)
VH: QVQLVESGGGLVKPGGSLRLSCSTSGFVFSSYAMHWVRQAPGKGLEHVSAISSTGDNTHYADSVKGRFTISRDNSRGRLYLQMTSVRPEDAALYYCVKDLYSGRFYYFLDDWGQGTRIIVSS
VL: DIQVTQSPSSLSASVGDRVTISCRASQNISNYLNWFQQRPGKAPKLLIYVASTLQSGAPSRFSGSGSGTDFTLTITDLQPEDFATYYCQQSYNTPPITFGQGTRLEIK

In the first experiment the target is hMPV A1 F trimer (heated), postfusion hMPV F (human metapneumovirus subgroup A1; …, UniProt H6X1Z1, strain).
For the molecule B1, the binding result is reported as “binds”.

For the molecule B2, the binding result was “binds”.

Turning to B3, the binding result is reported as “binds”.

Turning to B4, the binding result is listed as “binds”.

Regarding B5, the binding result was “binds”.

With B6, the binding result is “binds”.

For B7, the binding result is “binds”.

In a further experiment the target is hMPV A1 F monomer (trypsinized monomeric prefusion hMPV F) (human metapneumovirus subgroup A1; …, UniProt H6X1Z1, strain).
Turning to B1, the binding result is reported as “binds”.

For the molecule B2, the binding result is “binds”.

B3: the binding result is listed as “binds”.

For B4, the binding result was “binds”.

On to B5, for which the binding result was “binds”.

For B6, the binding result is given as “binds”.

B7: the binding result is listed as “binds”.

Values taken from PMC9231621 (Proceedings of the National Academy of Sciences of the …, 2022).
